Article PMC8221569

Target: human histones H3.1–H4 tetramer (human) (UniProt P68431)
Assay: ITC; MicroCal PEAQ-ITC, 20°C, 20 mM Tris-HCl pH 7.5, 500 mM NaCl; 300 μM DNAJC9 HBD in the syringe, 30 μM (dimers) H3-H4 in the cell; one set of sites model; n = 3

Sequence of DNAJC9 HBD (171–249), GST tag removed (Q8WXX5 171-249): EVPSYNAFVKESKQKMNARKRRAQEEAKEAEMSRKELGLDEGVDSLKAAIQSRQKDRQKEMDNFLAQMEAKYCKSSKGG

Kd: 39.5 nM
Substance: DNAJC9 HBD (171–249), GST tag removed (from UniProt Q8WXX5 171-249) (domain or fragment)
